{"source": "patent US10617652B2", "about": "“Polymers and polymeric nanogels with hydrophilics encapsulation and release capabilities and methods thereof” (University of Massachusetts, priority 2014, dated 2020)", "target": "T1, acid α-glucosidase (GAA) (Homo sapiens, UniProt P10253)", "T1 construct": "purchased Genzyme, Inc. (Myozyme)", "assay": "GAA activity assay with para-nitrophenol-α-D-glucopyranoside substrate", "format": "biochemical", "description": "The activity of the encapsulated GAA, relative to the free GAA, was evaluated. It was envisioned that the enzyme would be less available to the substrate, when encapsulated, and therefore would have a lower activity. It follows then that the activity will be recovered when exposing the nanogel to lower pH, as the enzyme will be released in response to the β-thioester cleavage based decrosslinking. The enzymatic activity was measured using para-nitrophenol-α-D-glucopyranoside as substrate, the GAA-assisted cleavage of the α-1,4-linkage of which releases the chromophore p-nitrophenolate (pNP). […] Note, however, that the enzymatic activity of GAA itself at pH 7.4 is undetectable (FIG. 4a).\nTo activate the GAA from the nanogel, the pH of the solution was reduced to 5.0 using acetate buffer. […] To calibrate the percentage of activity that was recovered after 48 hours of incubation at pH 5.0, the enzymatic activity of the GAA from the nanogel was compared with that of the free enzyme at the same concentration. […]\nGAA activity was measured using para-nitrophenol-α-D-glucopyranoside as a substrate in 100 mM Citrate/100 mM Sodium Phosphate buffer at pH 5.0. […] Presence of the product formation (para-nitrophenolate) was then measured by absorbance of 400 nm light on a Molecular Devices Spectra Max M5 at 25° C. […]", "data": [{"substance": "acid α-glucosidase [GAA]", "values": [{"measurement": "enzymatic activity at pH 7.4", "result": "undetectable"}]}]}
